Assay results taken from the supplement of paper PMC9170038.

Legend:
[1] = tested on: MS2 coat protein; assay: apparent KD of MS2 coat protein; higher = weaker reporter binding; conditions: Eterna round: R107
Procedure: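 RNA-MaP round R107: designed RNA switches with theophylline, tryptophan, arginine or FMN aptamers are transcribed on-chip within common flanks. They are titrated with SNAP-549-labelled MS2 coat protein in RNA-MaP buffer (100 mM Tris pH 7.5, 80 mM KCl, 4 mM MgCl2), without ligand or with the indicated ligand. Median apparent KD per design.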

[2] = tested on: K4 kissing-loop RNA reporter; assay: apparent KD of K4 kissing-loop reporter; higher = weaker reporter binding; conditions: Eterna round: R107;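 also: bound reporter read as fluorescence of individual clusters on recovered sequencing chips by microscopy, with normalized cluster intensities fitted with a binding model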
Procedure: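 RNA-MaP round R107: designed RNA switches with theophylline, tryptophan, arginine or FMN aptamers are transcribed on-chip within common flanks. They are titrated with a labelled K4 kissing-loop RNA reporter in RNA-MaP buffer (100 mM Tris pH 7.5, 80 mM KCl, 4 mM MgCl2), without ligand or with the indicated ligand. Median apparent KD per design.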

[3] = input ligand: theophylline 20 uM
[4] = input ligand: theophylline 2 mM
[5] = input ligand: tryptophan 2.4 mM

Sequence	apparent KD of MS2 coat protein ([1]; input ligand: arginine 13.2 mM) [nM]	apparent KD of MS2 coat protein [1, 3] [nM]	apparent KD of MS2 coat protein [1, 4] [nM]	apparent KD of MS2 coat protein ([1]; input ligand: none) [nM]	apparent KD of MS2 coat protein [1, 5] [nM]	apparent KD of K4 kissing-loop reporter ([2]; input ligand: FMN 200 uM) [nM]	apparent KD of K4 kissing-loop reporter ([2]; input ligand: arginine 13.2 mM) [nM]	apparent KD of K4 kissing-loop reporter ([2]; input ligand: none) [nM]	apparent KD of K4 kissing-loop reporter [2, 3] [nM]	apparent KD of K4 kissing-loop reporter [2, 5] [nM]
CACGAAAGAUCGGCCGCCACUAUUUGAUGUGUUCUUUCACAUGAGGAUCACCCAUGUUCUUUCUUUAGGACCGGGAUUGAGCGUG [ETB #1]	88.8	126	162	–	–	–	–	–	–	–
CGAUGCGCAUUAUCCCACUGGUAUGAGUCUCGAGGACCGGUACGGCCGCCACUCGCUACCGUACAUGAGGAUCACCCAUGUAUUA [theeternabot_exclusion_MS2_Trp_A_13]	23.7	38.8	35.9	–	–	–	–	–	–	–
AAACGCCACGGAAGGAGCGACAUGAGGAUCACCCAUGUAGAAGUGGCGGAUGCACCCUCCUGUCAGGUAGGUCGCCGUGCGCCAA [XArg-B24]	17.1	39	29.7	21.2	22.4	–	–	–	–	–
UCGGGCAGAGCGGCCGCCACUGUUUGGCAUGCGGAUGAAGGAACAUGAGGAUCACCCAUGUAGAUUAGGACCGGGCUUGCGGAGA [rvcmullin]	19.1	22.1	23.8	18.2	19.5	–	–	–	–	–
UGUAUGUGAUCUGAUACCAGAGUUGAUAAUCUGAGGAUCACCCUGGUAAGGCGAAAGCCACUCCCUUGGCAGCAGAUCGCAUACU	106	874	175	306	725	–	–	–	–	–
GGAUAGGACACGGCCGCCACUAGCUAGGAUACUAGCAACAUUUCCUCACUUGAGGAUCACCCAAGUAGGACCGGGUGUCCUAUCG	95.2	250	160	162	182	–	–	–	–	–
AAAAUAAAUAAAACACGUAACAUGAAGGAUACCAGACAGGAAACUGUCCCUUGGCAGCCUCUACAUGAGGAUCACCCAUGUCGUG [Mat - Same State Theophlline A - Mod of Eli - D17]	112	128	–	–	266	–	–	–	–	–
AUAUUAAUCGGAAGGAGCGGUACAUGAGGAUCACCCAUGUGUGAAGCGAGCAGAUCCCGUUACCAGGUAGGUCGCCGAGUUAUGA [XArg-B6]	85.4	229	187	213	148	–	–	–	–	–
ACAUUAGCCACGGCCGCCACUGCCUUAUGAUUAUAAGGAUUAAUGAACAUGAGGAUCACCCAUGUCAGGACCGGGUGCCUACCAU [SSTryp B #5]	20.1	32.5	26.5	–	–	–	–	–	–	–
GGUCGCCAACAUGGGUGGGCGACCCUGGAAGGAGCGAGCGAGAGCUCAGGUAGGUCGCCAGAACAUGAGGAUCACCCAUGUAAUA [(A)''-(M)'-(A)'(Arg1)-(Arg2)-(M1)-(M2)_Design13]	70.8	162	70.3	44.5	59.6	–	–	–	–	–
GCUAGGUCAUCGGCCGCCACUAACGAUGGCUCCAACAUGAGGAUCACCCAUGUGCCACAUGCGCAUAGGACCGGGAUGACCUAGC [SSTB NP+V+V2 #3]	11.3	16.2	14.1	–	–	–	–	–	–	–
GAGGGUGAAUCUCUGGUCCGUUUGACGGAUACCAGCGAGAGGUAUCGCCCUUGGCAGCCGACGACAUGAGGAUCACCCAUGUUAA [#08 Exclusion-TheophyllineA]	18.9	30.4	–	–	18	–	–	–	–	–
ACGUGCAGCAGAAGGAGCGUCUUAAUUCUACAUGAGGAUCACCCAUGUUUACAUUGGAUAUGACAGGUAGGUCGCUGAAGUACGA [#05 Same State - Arginine B]	36.2	41.7	37.2	30	18	–	–	–	–	–
AACAUGAGGAUCACCCAUGUCUGAACUGAAGGAGCGCUAAAUAAGGCAGGUAGGUCGCGGAAUUUUAUAUAUAUAUAUAUAUGGG [9.E]	13.7	39.9	34.6	25.6	20.5	–	–	–	–	–
UUAAGAGGCUAUCCACUUUGAUUUUGUGAUACCAGAAUAAUUUUAUUCCCUUGGCAGCAUGACAUGAGGAUCACCCAUGUGUCUU [SSTheo A #3]	31.4	46.5	–	–	36.9	–	–	–	–	–
ACGCUGAUUGAUUACAAUCAGCGAAAAGAUACCAGUGGGUAAUCCCACCCUUGGCAGCUUAAACAAGAGGAUCACCCUUGUGGUA [TheoAS 16 #MS2Right #BothOrNeither #AlternativeMS2]	102	370	238	201	521	–	–	–	–	–
AAUACCGGUCCUCGAAGUGAUCCUCAUGAACGAGGACCGGUACGGCCGCCACUCGAUAACAUGAGGAUCACCCAUGUAAUAAUAA [|T'-M'-Trp-Ms2|_Design4]	72.8	93.1	115	63.9	70.6	–	–	–	–	–
UCCUCCUCCGGAAGGAGGAGGAGUUGCGAUACCAGCCCGGAAACGGGCCCUUGGCAGCGCACAUGAGGAUCACCCAUGUCAUGUU [#1 Exclusion - Theophylline A Attempt #7 (HarryS)]	16.7	26.3	–	–	18.8	–	–	–	–	–

Sequence	apparent KD of MS2 coat protein ([1]; input ligand: arginine 13.2 mM) [nM]	apparent KD of MS2 coat protein [1, 3] [nM]	apparent KD of MS2 coat protein [1, 4] [nM]	apparent KD of MS2 coat protein ([1]; input ligand: none) [nM]	apparent KD of MS2 coat protein [1, 5] [nM]	apparent KD of K4 kissing-loop reporter ([2]; input ligand: FMN 200 uM) [nM]	apparent KD of K4 kissing-loop reporter ([2]; input ligand: arginine 13.2 mM) [nM]	apparent KD of K4 kissing-loop reporter ([2]; input ligand: none) [nM]	apparent KD of K4 kissing-loop reporter [2, 3] [nM]	apparent KD of K4 kissing-loop reporter [2, 5] [nM]
GCGAUGGAGCGAAGGAGCGGCUAUCACCGACAAAACAUGAGGAUCACCCAUGUUGGCAGUGGCCAGGUAGGUCGCGCUCCAUCGC [EAB NP+V+V2 #8]	8.17	12.3	10.8	11.4	8.57	–	–	–	–	–
UAUAUAUAGAUGGAUACCAGCAGAGAAAACGUUUAUCCUAACAUGAGGAUCACCCAUGUAUGCCCUUGGCAGCUGUUUAUAUAUA [8.I]	18.9	31.5	–	–	22.6	–	–	–	–	–
GCACCAGGUACGGAUACCAGACGUUGCCAAUUGGGUGCACAUGAGGAUCACCCAUGUUCUGUCCCUUGGCAGCCGUACCUGGUGC [EThB NP+V+V2 #5]	10.2	13.5	73.2	10.1	9.12	–	–	–	–	–
CAUGCCAGGGCGGCCGCCACUGUGGCUACGGUACAUGAGGAUCACCCAUGUUUGUGGUUGAUCUACAGGACCGGGCCCUAGCACG [Anananenes]	30.6	597	528	–	–	–	–	–	–	–
CUGGACAUGAGGAUCACCCAUGUAAAUCCUCGAGGACCGGUACGGCCGCCACUCGAACGAGUGGCGCGCGCGCGCGCGCGCGCGC [aIa]	23.5	142	89.5	54.3	62.9	–	–	–	–	–
UAAAACAUGAGGAUCACCCAUGUAAUUGAUACCAGAGUGAUGAUCCUCCCUUGGCAGCAAAACGCUGAUUGAUUACAAUCAGCGA [Mat - Same State Theophlline A - Mod of Eli - D24]	36.8	169	–	–	42.5	–	–	–	–	–
AACAGACGAGACGAUACCAGUCUCUUAGCGCACAUGAGGAUCACCCAUGUUGGCAAGCUCGACCCUUGGCAGCGUACCUUUGAUC [theeternabot_sameState_MS2_Theo_B_6]	23.8	34.3	–	–	24.3	–	–	–	–	–
GUCCUCAGCCGAAGGAGCGCUAGAAGAUGACAUGAGGAUCACCCAUGUGUGUGAUGUGGCUAGCAGGUAGGUCGCGGAGAGGAUU [Exclusion - Arginine B (Freestyle 16)]	19.8	37.1	28	22.9	20.6	–	–	–	–	–
GGCUAUACUACGGCCGCCACUGAACAUGAGGAUCACCCAUGUAAUGUUCAGAUUUUUUUUUUUUACAGGACCGGGUAGAAUUGCC [Tryptophan B 3]	82.6	220	299	–	–	–	–	–	–	–
UUGGGUAUGCGAAGGAGCGGGAAAUAUAUAUAUAUAAUCCUAACAUGAGGAUCACCCAUGUCCCAGGUAGGUCGCGCAUGUUUGG [12.K]	128	250	423	207	247	–	–	–	–	–
UGUAUGUGAUCUGAUACCAGCCUCAUAACUUGAGGAUCACCCAAGUGGAGCGGAAACGCUGGCCCUUGGCAGCAGAUCGCAUACU [TheoBS 2 #AlternativeMS2]	205	200	15.3	460	556	–	–	–	–	–
GGAAAUUGAUCAACGCAGUGAUGUUGCGAUACCAGACACAAAGCCGUCCCUUGGCAGCGCGGGACAUUAAUGGAUCUAUGGGUUC [theeternabot_exclusion_KL_Theo_A_26]	–	–	–	–	–	68.5	113	68.2	119	66.8
CCUAUCUCAUACGAUACCAGUCAAAUAAAUUAUAACGAGUGAUGUUCGAAAUGCCAUCACGACCCUUGGCAGCGUAUGGGAUAGG [Ex Theophylline B K4 1]	–	–	–	–	–	304	123	212	186	125
AGAACUGUCUGAGAUACCAGCUAAGGAGUGAUGUUCCGGCUCGACGAAACGUCGAGCCAUAGCCCUUGGCAGCUCAGACAGUUCA [#27 K4 Theophylline B Same State]	–	–	–	–	–	431	183	378	873	244
UGAUACCAGACUGAUACCAGCCAGUGAUGUUGGCUAAGCCGAAGAGGUGUCAAAGACACCGGCCCUUGGCAGCAGUCUGGUAUCU [#06 K4 Theophylline B Exclusion]	–	–	–	–	–	132	117	114	117	117
AAGUGUUCUAGUGAUACCAGACAUUUCUAUUUUAUCUUUAUAGCUAAGUGAUGUUUAGCAGUCCCUUGGCAGCACUAUUUCACUA [JR_SSTheophyB_Sub017]	–	–	–	–	–	123	155	137	160	147
AAAUAAUAAAUGCAGCCAGUGAUGUUGGAAGGAGCGUGCGAAAGCACAGGUAGGUCGCCAACCAAAGCUGGAAACAGCAACUGCA [#SwitchBubble 3 #K4Early]	–	–	–	–	–	226	129	84.5	129	99.1
